The results in this text go back to the supplement of paper PMC10567573.

± gives the standard deviation.

The nature of the data set: protein stability index of a GFP-peptide fusion (GPS, HEK-293T) (PSI 1-6); higher = more stable.
Setting [1] is: treatment: DMSO, c terminus: a fixed tail appended.
The mark [2] stands for this setting: treatment: MLN4924 1 uM, 8 h, c terminus: a fixed tail appended.
[3] abbreviates: treatment: DMSO, c terminus: native.
[4] abbreviates: treatment: MLN4924 1 uM, 8 h, c terminus: native.
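Also: 24-mer peptide tiles fused after GFP, lentivirally expressed, FACS-sorted into six equal bins by GFP/DsRed ratio, decoded by Illumina sequencing, PSI is the read-weighted mean bin number.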

The sequence PPLLGTFPRDHTSLALVQNGDVSA [ANKRD40] came in with a protein stability index under setting [1] of 4.57 ± 0.21 and a protein stability index under setting [2] of 4.4 ± 0.41.
For PPPPRSRGPPRGLRGGRGGSGGTR [RBMX] the same measures were 5.11 ± 0.5 and 4.96 ± 0.32.
For PPTVSQTPVIAATPVPTITANVTS [BRD3] the same measures were 4.83 ± 0.12 and 4.76 ± 0.18.
For PPVRPAGYLLSFHTPGGQNQEILL [TNXB] the same measures were 2.38 ± 0.29 and 2.38 ± 0.31.
With PQDQAGPGGAPRVASRNLFPKDTL [CLPTM1], the protein stability index reads like this: under setting [1], 4.41 ± 0.36; under setting [2], 4.61 ± 0.28.
For PQELINYVQTVDFMRTDNTCVNLL [KLHL13] the same measures were 2.46 ± 0.35 and 2.51 ± 0.42.
The matching figures for PQPLSFKEPPLLLGVLHPNTKLRQ [APMAP]: 3.48 ± 0.17 and 3.59 ± 0.2.
For PSGTPELEVPKPGQPSEPEHGPSP [CHIT1] the same measures were 5.52 ± 0.25 and 5.47 ± 0.18.
Take PSLSPGAFSYSSSSRFSSSRLLGS [PRPH]: the protein stability index runs as follows: under setting [1], 3.29 ± 0.23; under setting [2], 3.28 ± 0.16.
The matching figures for PSRAKPPTEGAGSPAKASQASKLR [FBF1]: 5.16 ± 0.28 and 5.2 ± 0.2.
The matching figures for PTESEPVTINIQDLLSCSNFAVQH [MATN2]: 3.56 ± 0.5 and 3.37 ± 0.43.
For PTFMIAVFLPIVVLIFKSILFLPC [STEAP1] the same measures were 3.22 ± 0.3 and 3.3 ± 0.46.
In the case of PVPATAPSPAPAVAAAAAATTAAT [SNAP91], the protein stability index under setting [1] stood at 5.32 ± 0.16 and the protein stability index under setting [2] worked out at 5.25 ± 0.097.
Consider PYFKSNDVVCKNQDELRNRSVKVI [FAN1], for which the protein stability index was determined as 3.78 ± 0.16 under setting [1] and 4.01 ± 0.33 under setting [2].
For QCSMPLHVAPLLAAAGLHASPMSA [NR2F2] the same measures were 2.58 ± 0.26 and 2.63 ± 0.24.
For QDLAFWYGPRWQEVIPYTPAMQRY [HMOX1] the same measures were 2.29 ± 0.2 and 2.36 ± 0.33.
For QEAFLVQEVVELPVTERQIEREHL [TBC1D10A] the same measures were 4.94 ± 0.25 and 4.71 ± 0.23.
With QEHKTDEMHTALMEACMDGHVEVA [ANKRD17], the protein stability index reads like this: under setting [1], 5.19 ± 0.4; under setting [2], 5.31 ± 0.21.
For QEKKRKFLESTDSFNNELKRLCGL [SMARCE1] the same measures were 2.87 ± 0.41 and 3.14 ± 0.69.
For QFTSSSSMKGSCGIGGGIGGGSSR [KRT16] the same measures were 3.29 ± 0.26 and 3.48 ± 0.32.
For the sequence QGHLRRLRSRYSVASFKFDAGEVS [MYORG], the protein stability index was found to be 2.93 ± 0.26 under setting [1] and 3.27 ± 0.33 under setting [2].
For QGLFFDMEAYLPKKNGLYLSLVLG [TMEM120A] the same measures were 2.67 ± 0.42 and 2.62 ± 0.23.
Turning to QGMEVDLVTGLAIEEACYAQTIPT [AUH], the protein stability index is, setting by setting: under setting [1], 3.73 ± 0.21; under setting [2], 3.53 ± 0.2.
QHLDPQGAQELLEFTIRDLQRLGE [INTS4]: the protein stability index runs as follows: under setting [1], 3.53 ± 0.4; under setting [2], 3.81 ± 0.46.
The matching figures for QHSVPLQLELRAGAERLDALLADE [TRADD]: 4.63 ± 0.31 and 4.62 ± 0.47.
For QICRAQGLETLFSKAQELGGAGRE [ZSWIM9] the same measures were 3.64 ± 0.23 and 3.66 ± 0.26.
The matching figures for QIDQIKRHSNVVILTTSNITEKID [TRIP13]: 3.21 ± 0.28 and 3.4 ± 0.19.
As to QIEKTTNREACRDLSGRRLRDVNH [SDE2], the protein stability index reads like this: under setting [1], 4.18 ± 0.24; under setting [2], 4.11 ± 0.6.
The matching figures for QKYDPDKDEWHKVFDLPESLGGIR [KLHL13]: 3.55 ± 0.23 and 3.93 ± 0.29.
Consider QLLLQFERLVVLDYIIRNTDRGND [PI4K2A], for which the protein stability index is, setting by setting: under setting [1], 2.98 ± 0.47; under setting [2], 2.64 ± 0.36.
For QLPPVVPVSKPGALRRSLSRSMSQ [TCAP] the same measures were 3.97 ± 0.13 and 3.96 ± 0.13.
For QLRLLQAPLQADLTEQVWKVQDAL [SCARA5] the same measures were 3.15 ± 0.28 and 3.12 ± 0.3.
The matching figures for QNPEAIAAAAMYTFLPDNFSPAKP [MYORG]: 3.79 ± 0.15 and 3.86 ± 0.2.
QNPQITQLKIAANPFAKGFRENGR [TBX6]: the protein stability index reads like this: under setting [1], 3.33 ± 0.29; under setting [2], 3.35 ± 0.46.
Take QQLHARYVLNLLYETKKHLVQLPN [PPEF2]: the protein stability index under setting [1] amounted to 2.66 ± 0.35 and the protein stability index under setting [2] was 2.32 ± 0.22.
For QRAPQLPTWWPLPTQVPAAEDYLT [SPAG8], the protein stability index was determined as 3.12 ± 0.2 under setting [1] and 3.23 ± 0.21 under setting [2].
For QRIALRLGNGNDKKEMNKSDLNTN [KMT2E] the same measures were 4.78 ± 0.12 and 4.47 ± 0.28.
Regarding QSGRDLQQYQSQAKQLFRKLNEQS [SEC22B], the protein stability index was 3.72 ± 0.29 under setting [1] and 3.83 ± 0.27 under setting [2].
For QSLTEDLEFRKSMYEEEINETRRK [LMNB1] the same measures were 4.99 ± 0.26 and 5.04 ± 0.18.
The matching figures for QSVENCPEDLAQLEELIDMAVLEE [RPAIN]: 5.27 ± 0.15 and 5.27 ± 0.21.
Regarding QTESELQELSEVLELLSAPELKSL [FAN1], the protein stability index was 4.1 ± 0.19 under setting [1] and 4.11 ± 0.11 under setting [2].
For QTNSETAVVALTQDQPSEAATGGA [HDAC6] the same measures were 5.31 ± 0.2 and 5.42 ± 0.062.
The matching figures for QTVDGKHQDLKYISPETMVALLTG [CDC25B]: 2.77 ± 0.43 and 2.8 ± 0.33.
The matching figures for QTVGVGRGRFTTYEIRVKTNLPIF [SNX3]: 2.83 ± 0.067 and 3.02 ± 0.22.
Turning to QTWVRDHHPENGEEAVTVLEDLES [ZNF24], the protein stability index was 5.34 ± 0.21 under setting [1] and 5.43 ± 0.17 under setting [2].
The matching figures for QVSPVRRAPSRRHGVRAKVQPQAR [CPN1]: 4.88 ± 0.12 and 4.68 ± 0.13.
With QVYYFGPCGKYNAMVLELLGPSLE [CSNK1G1], the protein stability index worked out at 3.52 ± 1.8 under setting [1] and 1.92 ± 0.25 under setting [2].
The matching figures for QWLKDKILSEEGRRQQAKLKELQA [KCNAB2]: 3.13 ± 0.56 and 3.32 ± 0.13.
The matching figures for QYPGNYEQQQILIRQLQEQHYQQY [ACBD3]: 3.17 ± 0.26 and 3.24 ± 0.18.
For QYQYERYGAVELSGAGRRKNATRE [IRX6] the same measures were 4.5 ± 0.39 and 4.54 ± 0.32.
RAACFDGHLEVVRYLVGEHQADLE [FEM1A]: the protein stability index runs as follows: under setting [1], 3.31 ± 0.27; under setting [2], 3.39 ± 0.25.
On to RAKEEERLNKLRLESEGSPETLTN [HACD3], for which the protein stability index by setting is: under setting [1], 5.38 ± 0.23; under setting [2], 5.28 ± 0.26.
The matching figures for RALDRLQEVPHEGPMCDLLWSDPD [PPP2CA]: 4.42 ± 0.34 and 4.66 ± 0.17.
For RALQAALAESGGSPDVLQMLKIHR [TRADD] the same measures were 2.61 ± 0.34 and 2.91 ± 0.25.
The matching figures for RAMRYYYKREILERVDGRRLVYKF [ELF3]: 2.49 ± 0.15 and 2.63 ± 0.41.
As for RASATTTITTAAATSVTVPGAGVP [ZBTB22], the protein stability index is, setting by setting: under setting [1], 4.49 ± 0.19; under setting [2], 4.45 ± 0.3.
The matching figures for RASPTRTAPLPMPEGPEPAAPGKQ [ELOA2]: 5.4 ± 0.14 and 5.66 ± 0.1.
For RCHTVPCAGSTALQEPGEPQGPPA [PXN], the protein stability index runs as follows: under setting [1], 4.89 ± 0.15; under setting [2], 4.92 ± 0.25.
The matching figures for RDFAETHNCVDLMQAAEVFSQKHF [KLHL12]: 3.31 ± 0.23 and 3.21 ± 0.49.
For RDHHSTHYRASEEEPEYGEEIKGY [CHGB] the same measures were 5.1 ± 0.25 and 5.05 ± 0.13.
As to RDHIPRGKEELESLGGGKTPPGR [MOG], the protein stability index stood at 3.87 ± 0.1 under setting [3] and 4.09 ± 0.42 under setting [4].
On to RDTTGVSQMFPSSKARTKSLLGDD [FBF1], for which the protein stability index worked out at 4.83 ± 0.056 under setting [1] and 4.82 ± 0.14 under setting [2].
For REDITEPAICALRHLTSRHQEAEM [CTNNB1] the same measures were 4.58 ± 0.41 and 4.4 ± 0.43.
The matching figures for REDNSGSDVLIGDILVLLGASLYA [SLC35F2]: 2.79 ± 0.18 and 2.99 ± 0.61.
The matching figures for REEQQLLASTSKPVVKLLHNRSNN [KCTD13]: 4.75 ± 0.23 and 4.89 ± 0.14.
REEVRGRELTGLKALYETELADAR [LMNB1]: the protein stability index under setting [1] turned out to be 4.97 ± 0.2 and the protein stability index under setting [2] came out at 4.83 ± 0.27.
In the case of RENSKPRAILKPRKVCVGGKRRKD [PPP2R2B], the protein stability index reads like this: under setting [1], 4.73 ± 0.35; under setting [2], 4.89 ± 0.34.
For RERFMECLMIGRDLVRLLQNVARI [INTS3] the same measures were 2.31 ± 0.28 and 2.54 ± 0.31.
Regarding RERIERVRRIHIKRPDDRAHLHQ [KCTD10], the protein stability index by setting is: under setting [3], 4.2 ± 0.36; under setting [4], 4.51 ± 0.35.
With RFHDPSPAQSHTLQANDVFHKQQW [NET1], the protein stability index is 3.33 ± 0.11 under setting [1] and 3.4 ± 0.29 under setting [2].
In the case of RFQDGDNILEKEVLPPIHAYGNRT [FEM1B], the protein stability index is 3.96 ± 0.14 under setting [1] and 4.001 ± 0.01 under setting [2].
For RFQLLYVACGMVHLLIPELGACVA [DNAAF3] the same measures were 2.97 ± 0.17 and 3.39 ± 0.44.
